From paper PMC2734569, “Functional mapping of the fission yeast DNA polymerase δ B-subunit Cdc1 by site-directed and random pentapeptide insertion mutagenesis” (BMC Molecular Biology, 2009)

How the values were obtained:
Assay in all cases: two-hybrid; LexA-Cdc1 bait (pBTM116 or pBTM116BN) with Gal4-Pol3 prey and co-expressed c-myc-tagged Cdc27 (pAA-Cdc27) in S. cerevisiae CTY10-5d; ONPG liquid culture beta-galactosidase assay, mean of triplicates, as percent of wild-type Cdc1
Conditions in all cases: partners not purified
[1] = molecular target: T1, Cdc1-A4 (Schizosaccharomyces pombe, UniProt P87324 1-462, Pro303Ala)
T1 construct: Cdc1, S. pombe, point mutant; source: yeast two-hybrid fusion, in S. cerevisiae CTY10-5d
T1 sequence (looked up): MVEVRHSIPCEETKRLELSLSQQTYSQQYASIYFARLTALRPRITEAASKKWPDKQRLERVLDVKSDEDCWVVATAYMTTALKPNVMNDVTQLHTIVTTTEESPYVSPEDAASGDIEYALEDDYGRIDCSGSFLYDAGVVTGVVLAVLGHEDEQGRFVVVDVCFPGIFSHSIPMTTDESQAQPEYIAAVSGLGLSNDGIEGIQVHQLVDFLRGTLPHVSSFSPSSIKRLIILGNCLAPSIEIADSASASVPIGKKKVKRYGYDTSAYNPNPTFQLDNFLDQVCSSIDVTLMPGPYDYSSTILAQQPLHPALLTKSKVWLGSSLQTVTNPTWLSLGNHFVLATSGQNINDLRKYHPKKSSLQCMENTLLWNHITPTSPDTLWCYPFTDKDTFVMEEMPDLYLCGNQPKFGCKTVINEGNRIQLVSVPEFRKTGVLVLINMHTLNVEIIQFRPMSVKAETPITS

[2] = molecular target: T2, Cdc1-J1 (Schizosaccharomyces pombe, UniProt P87324 1-462, Thr-GlyValProLeuThr-Gly)
T2 construct: Cdc1, S. pombe, with a pentapeptide inserted after residue 141; source: yeast two-hybrid fusion, in S. cerevisiae CTY10-5d
T2 sequence (looked up): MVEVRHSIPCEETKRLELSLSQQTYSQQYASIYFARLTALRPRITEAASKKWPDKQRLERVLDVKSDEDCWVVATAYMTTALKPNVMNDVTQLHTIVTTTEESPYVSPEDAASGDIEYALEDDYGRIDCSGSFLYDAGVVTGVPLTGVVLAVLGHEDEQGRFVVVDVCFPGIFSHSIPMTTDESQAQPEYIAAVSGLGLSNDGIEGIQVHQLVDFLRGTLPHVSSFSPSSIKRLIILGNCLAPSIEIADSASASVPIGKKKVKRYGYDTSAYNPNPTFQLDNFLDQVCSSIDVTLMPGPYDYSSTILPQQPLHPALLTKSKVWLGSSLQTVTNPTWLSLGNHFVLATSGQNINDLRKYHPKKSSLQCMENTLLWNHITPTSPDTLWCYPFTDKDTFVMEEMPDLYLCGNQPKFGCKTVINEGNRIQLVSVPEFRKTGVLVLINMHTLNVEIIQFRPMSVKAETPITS

[3] = molecular target: T3, Cdc1-A7 (Schizosaccharomyces pombe, UniProt P87324 1-462, Gly344Ala)
T3 construct: Cdc1, S. pombe, point mutant; source: yeast two-hybrid fusion, in S. cerevisiae CTY10-5d
T3 sequence (looked up): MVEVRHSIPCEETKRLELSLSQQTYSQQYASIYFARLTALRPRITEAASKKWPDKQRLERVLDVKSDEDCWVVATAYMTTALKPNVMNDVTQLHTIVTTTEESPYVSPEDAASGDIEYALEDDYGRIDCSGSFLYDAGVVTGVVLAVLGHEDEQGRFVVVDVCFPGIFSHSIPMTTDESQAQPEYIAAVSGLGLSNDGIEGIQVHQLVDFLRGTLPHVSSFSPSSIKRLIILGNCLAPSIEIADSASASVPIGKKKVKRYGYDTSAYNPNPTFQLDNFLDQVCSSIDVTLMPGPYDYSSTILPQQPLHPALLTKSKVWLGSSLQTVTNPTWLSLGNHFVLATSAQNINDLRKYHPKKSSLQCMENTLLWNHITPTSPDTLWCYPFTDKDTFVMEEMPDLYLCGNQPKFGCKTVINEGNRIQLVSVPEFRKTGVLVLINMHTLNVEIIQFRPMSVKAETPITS

[4] = molecular target: T4, Cdc1-A8 (Schizosaccharomyces pombe, UniProt P87324 1-462, Pro374Ala)
T4 construct: Cdc1, S. pombe, point mutant; source: yeast two-hybrid fusion, in S. cerevisiae CTY10-5d
T4 sequence (looked up): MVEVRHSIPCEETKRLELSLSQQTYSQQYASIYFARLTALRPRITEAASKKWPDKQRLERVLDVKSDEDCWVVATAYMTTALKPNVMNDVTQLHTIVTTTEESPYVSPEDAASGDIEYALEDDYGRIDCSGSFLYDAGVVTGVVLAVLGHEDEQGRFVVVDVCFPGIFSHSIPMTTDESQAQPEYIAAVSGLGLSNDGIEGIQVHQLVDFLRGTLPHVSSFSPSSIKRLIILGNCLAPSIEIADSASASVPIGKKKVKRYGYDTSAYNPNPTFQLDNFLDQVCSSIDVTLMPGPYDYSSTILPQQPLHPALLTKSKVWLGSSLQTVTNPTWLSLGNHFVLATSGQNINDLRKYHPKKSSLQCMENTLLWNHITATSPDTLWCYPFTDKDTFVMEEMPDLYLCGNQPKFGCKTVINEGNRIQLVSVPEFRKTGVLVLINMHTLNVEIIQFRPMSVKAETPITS

two-hybrid beta-galactosidase activity, % of wild-type Cdc1 [1]: < 1%
two-hybrid beta-galactosidase activity, % of wild-type Cdc1 [2]: < 1%
two-hybrid beta-galactosidase activity, % of wild-type Cdc1 [3]: 9%
two-hybrid beta-galactosidase activity, % of wild-type Cdc1 [4]: 17%
B1: Pol3 (fission yeast DNA polymerase delta catalytic subunit) (natural protein, Schizosaccharomyces pombe, UniProt P30316 1-1086, looked up)
chain: MTDRSSNEGVVLNKENYPFPRRNGSIHGEITDVKRRRLSERNGYGDKKGSSSKEKTSSFEDELAEYASQLDQDEIKSSKDQQWQRPALPAINPEKDDIYFQQIDSEEFTEGSVPSIRLFGVTDNGNSILVHVVGFLPYFYVKAPVGFRPEMLERFTQDLDATCNGGVIDHCIIEMKENLYGFQGNEKSPFIKIFTTNPRILSRARNVFERGEFNFEELFPVGVGVTTFESNTQYLLRFMIDCDVVGMNWIHLPASKYQFRYQNRVSNCQIEAWINYKDLISLPAEGQWSKMAPLRIMSFDIECAGRKGVFPDPSIDPVIQIASIVTQYGDSTPFVRNVFCVDTCSQIVGTQVYEFQNQAEMLSSWSKFVRDVDPDVLIGYNICNFDIPYLLDRAKSLRIHNFPLLGRIHNFFSVAKETTFSSKAYGTRESKTTSIPGRLQLDMLQVMQRDFKLRSYSLNAVCSQFLGEQKEDVHYSIITDLQNGTADSRRRLAIYCLKDAYLPQRLMDKLMCFVNYTEMARVTGVPFNFLLARGQQIKVISQLFRKALQHDLVVPNIRVNGTDEQYEGATVIEPIKGYYDTPIATLDFSSLYPSIMQAHNLCYTTLLDSNTAELLKLKQDVDYSVTPNGDYFVKPHVRKGLLPIILADLLNARKKAKADLKKETDPFKKAVLDGRQLALKVSANSVYGFTGATNGRLPCLAISSSVTSYGRQMIEKTKDVVEKRYRIENGYSHDAVVIYGDTDSVMVKFGVKTLPEAMKLGEEAANYVSDQFPNPIKLEFEKVYFPYLLISKKRYAGLFWTRTDTYDKMDSKGIETVRRDNCPLVSYVIDTALRKMLIDQDVEGAQLFTKKVISDLLQNKIDMSQLVITKALSKTDYAAKMAHVELAERMRKRDAGSAPAIGDRVAYVIIKGAQGDQFYMRSEDPIYVLENNIPIDAKYYLENQLSKPLLRIFEPILGEKASSLLHGDHTRTISMAAPSVGGIMKFAVKVETCLGCKAPIKKGKTALCENCLNRSAELYQRQVAQVNDLEVRFARLWTQCQRCQGSMHQDVICTSRDCPIFYMRIAEHKKLQQSVDLLKRFDEMSW
notes: DNA polymerase delta catalytic subunit Pol3, S. pombe; prey plasmid named pACT-Pol3 in the results and pGAD2F-Pol3 in the methods; also called Gal4-Pol3; pACT-Pol3; source: yeast two-hybrid fusion, in S. cerevisiae CTY10-5d
